Assay [1] concerns the target HLA-DQ molecule DQB1*0503 (human). The assay can be described thus: inhibition of radiolabeled peptide binding to purified HLA.
Assay [2] addresses HLA-DQ molecule DQB1*0202 (human). Described as above.
For assay [3], the target named is HLA DQ molecule DQB1*0202 (human). The assay can be described thus: inhibition of radiolabeled peptide binding to purified HLA class II.
Assay [4] has as its target HLA DQ molecule DQB1*0503 (human). The description is as above.
In the next assay the target is T1, HLA-DP DPB1*0401 (human).
T1 chain 1: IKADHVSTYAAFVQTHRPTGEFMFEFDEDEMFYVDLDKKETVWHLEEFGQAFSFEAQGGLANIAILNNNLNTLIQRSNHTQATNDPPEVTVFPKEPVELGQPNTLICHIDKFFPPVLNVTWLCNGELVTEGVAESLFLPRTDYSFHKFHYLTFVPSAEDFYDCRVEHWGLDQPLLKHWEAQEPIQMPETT
T1 chain 2: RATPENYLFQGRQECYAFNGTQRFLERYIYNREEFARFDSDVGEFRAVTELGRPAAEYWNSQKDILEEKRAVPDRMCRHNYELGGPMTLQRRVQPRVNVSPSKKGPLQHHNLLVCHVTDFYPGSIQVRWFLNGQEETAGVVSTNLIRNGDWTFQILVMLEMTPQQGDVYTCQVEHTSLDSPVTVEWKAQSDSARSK
Put plainly: inhibition of radiolabeled peptide binding to purified HLA-DP.

In assay [5] the target is HLA DQ molecule DQB1*0502 (human). Put plainly: inhibition of radiolabeled peptide binding to purified HLA class II.
The target of assay [6] is HLA DQ molecule DQB1*0503 (human). The description is as above. This is another data set of the same source.
A further assay addresses T2, HLA-DP DPB1*0201 (human).
T2 chain 1: T1 chain 1
T2 chain 2: T1 chain 2 with A36V, A55D, A56E, K69E
The assay can be described thus: inhibition of radiolabeled peptide binding to purified HLA-DP.

The target of assay [7] is HLA-DQ molecule DQB1*0502 (human). The assay can be described thus: inhibition of radiolabeled peptide binding to purified HLA.
For assay [8], the target named is HLA-DQ molecule DQB1*0503 (human). The assay can be described thus: inhibition of radiolabeled peptide binding to purified HLA-DQ.
The target in assay [9] is HLA-DQ molecule DQB1*0602 (human). The assay is described as above.
Assay [10] has the same target. The assay can be described thus: inhibition of radiolabeled peptide binding to purified HLA.
The target in assay [11] is HLA-DP molecule DPB1*2001 (human). The assay can be described thus: inhibition of radiolabeled peptide binding to purified HLA-DP.

Substitutions are numbered along the chain they refer to.

B1: Der p 4 peptide 3324.0980 (position 411) (peptide)
peptide: YQIAFSRGNRAFIAI
In the case of B1, the results for the 50% inhibitory concentration (IC50) in [1] and in [2] were 1410 nM and 8720 nM, respectively.

B2: Lol p 3 peptide, position 76, NVFDEVIPTAFTVGK (Peptide ID 3324.1141) (peptide)
peptide: NVFDEVIPTAFTVGK
In the case of B2, the half-inhibitory concentration (IC50) in assay [3] turned out to be 1700 nM; in [4], 2900 nM.

B3: Der p 4 (482-496) peptide 3324.0971 (peptide)
peptide: FDAFVAYHIGARIVS
Molecule B3 came in with an IC50 with HLA-DP DPB1*0401 of 71 nM. This lies in the double-digit nanomolar range.

B4: Der p 1 peptide 3324.0829 (position 136) (peptide)
peptide: SGVAATESAYLAYRN
Molecule B4 displayed an IC50 in assay [2] of 871 nM.

B5: Lol p 5 1 peptide, position 71, LIEKINAGFKAAVAA (Peptide ID 3324.1175) (peptide)
peptide: LIEKINAGFKAAVAA
Regarding B5, the IC50 came to 50000 nM in assay [3] and 147 nM in assay [4].

B6: Fel d 1 2 (26-40) peptide IFYDVFFAVANGNEL, Peptide ID 3324.1052 (peptide)
peptide: IFYDVFFAVANGNEL
Turning to B6, the 50% inhibitory concentration (IC50) stood at 6650 nM in [5] and 8130 nM in [6].

B7: Der p 4 (321-335) peptide 3324.0977 (peptide)
peptide: AFMLAWNYGVPRVMS
For B7, the half-maximal inhibitory concentration (IC50) with HLA-DP DPB1*0401 came to 5160 nM; with HLA-DP DPB1*0201, 185 nM.

B8: Der p 1 peptide 3324.0832 (position 131) (peptide)
peptide: SCWAFSGVAATESAY
Consider B8, for which the IC50 in [7] was determined as 4400 nM.

B9: Cup a 1 (71-85) peptide IFSQNMNIKLQMPLY (peptide)
peptide: IFSQNMNIKLQMPLY
Consider B9, for which the results for the IC50 in assay [8] and in assay [9] were 4900 nM and 262 nM, respectively.

B10: Cla h 8 (151-165) peptide GTGSLVITASMSGHI, Peptide ID 3324.0603 (peptide)
peptide: GTGSLVITASMSGHI
On to B10, for which the half-inhibitory concentration (IC50) in [6] amounted to 13800 nM. This counts as double-digit micromolar.

B11: Der p 4 (381-395) peptide 3324.0986 (peptide)
peptide: EHRWREIYNMVKFRM
Regarding B11, the half-inhibitory concentration (IC50) is 549 nM with HLA-DP DPB1*0401 and 109 nM with HLA-DP DPB1*0201.

B12: Der p 4 (386-400) peptide 3324.0978 (peptide)
peptide: EIYNMVKFRMIAGQE
Consider B12, for which the half-inhibitory concentration (IC50) came out at 122 nM with HLA-DP DPB1*0401 and 5.3 nM in the assay with HLA-DP DPB1*0201.

B13: Der p 4 peptide 3324.0976 (position 251) (peptide)
peptide: IEFRFYKEITNVFRG
Take B13: the IC50 in [1] came out at 4370 nM; in [2], 6200 nM; in [7], 5520 nM; in assay [10], 318 nM.

B14: Der p 4 (416-430) peptide 3324.0974 (peptide)
peptide: SRGNRAFIAINLQKN
In the assay with HLA-DP DPB1*0201, B14 yielded an IC50 of 7.2 nM.

B15: Cla h 6 (161-175) peptide GGRLAFQEFMIVPSG, Peptide ID 3324.0588 (peptide)
peptide: GGRLAFQEFMIVPSG
Turning to B15, the IC50 was determined as 4950 nM in assay [5] and 2440 nM in [6].

B16: Cla h 8 (181-195) peptide GCIHMARSLANEWRD, Peptide ID 3324.0602 (peptide)
peptide: GCIHMARSLANEWRD
On to B16, for which the values for the IC50 in assay [5] and in [6] were 673 nM and 649 nM, respectively.

B17: Aln g 1 (111-125) peptide 3324.0007 (peptide)
peptide: GGSILKISNKFHTKG
B17: the IC50 was 18500 nM with HLA-DP DPB1*0401 and 843 nM in the assay with HLA-DP DPB1*0201.

B18: Der p 1 peptide 3324.0840 (position 226) (peptide)
peptide: REALAQTHSAIAVII
For the molecule B18, the IC50 in [1] came to 32100 nM; in assay [2] it was 629 nM.

B19: Der p 4 (251-265) peptide 3324.0976 (peptide)
peptide: IEFRFYKEITNVFRG
With B19, the IC50 with HLA-DP DPB1*0201 amounted to 35 nM.

B20: Aln g 1 peptide 3324.0004 (position 11) (peptide)
peptide: PSVIPAARLFKAFIL
Turning to B20, the 50% inhibitory concentration (IC50) was 1450 nM in assay [1] and 11200 nM in assay [2].

B21: Dac g 2 (16-30) peptide NLALSIKYNKEGDSM (peptide)
peptide: NLALSIKYNKEGDSM
B21: the results for the 50% inhibitory concentration (IC50) in assay [8] and in assay [9] were 8960 nM and 258 nM, respectively.

B22: Lol p 3 peptide, position 11, SDAKTLVLNIKYTRP (Peptide ID 3324.1142) (peptide)
peptide: SDAKTLVLNIKYTRP
Turning to B22, in assay [11], the IC50 worked out at 24000 nM.

B23: Der p 4 peptide 3324.0974 (position 416) (peptide)
peptide: SRGNRAFIAINLQKN
For B23, the IC50 stood at 84 nM in assay [1], 7390 nM in assay [2], 546 nM in assay [7] and 98 nM in [10].

B24: Bet v 6 (206-220) peptide 3324.0387 (peptide)
peptide: RTLNKIVYIKPAKNI
Consider B24, for which the IC50 with HLA-DP DPB1*0401 is 41 nM.

B25: Lol p 3 peptide, position 76, NVFDEVIPTAFTVGK (Peptide ID 3324.1141) (peptide)
peptide: NVFDEVIPTAFTVGK
In assay [11], B25 had an IC50 of 13200 nM.

B26: Der p 4 peptide 3324.0975 (position 476) (peptide)
peptide: YVGHDEFDAFVAYHI
As for B26, the half-inhibitory concentration (IC50) in [2] came to 8140 nM; in [7] it was 5040 nM.

B27: Aln g 1 (11-25) peptide 3324.0004 (peptide)
peptide: PSVIPAARLFKAFIL
In the case of B27, the IC50 was determined as 7280 nM with HLA-DP DPB1*0401 and 63 nM with HLA-DP DPB1*0201.

B28: Bet v 6 peptide 3324.0387 (position 206) (peptide)
peptide: RTLNKIVYIKPAKNI
Take B28: the IC50 in assay [1] turned out to be 3460 nM; in assay [2], 12500 nM; in assay [10], 58 nM.

B29: Der p 4 peptide 3324.0971 (position 482) (peptide)
peptide: FDAFVAYHIGARIVS
With B29, the half-inhibitory concentration (IC50) is 1080 nM in [1], 4750 nM in assay [2] and 54 nM in assay [10].

B30: Aln g 1 peptide 3324.0007 (position 111) (peptide)
peptide: GGSILKISNKFHTKG
Regarding B30, in [2], the concentration for half-maximal inhibition (IC50) is 50000 nM.

B31: Bet v 1 peptide 3324.0352 (position 111) (peptide)
peptide: GGSILKISNKYHTKG
B31 registered a 50% inhibitory concentration (IC50) in [10] of 6060 nM.

B32: Poa p 5 peptide, position 51, QKLMEDINVGFKAAV (Peptide ID 3324.1580) (peptide)
peptide: QKLMEDINVGFKAAV
As to B32, the 50% inhibitory concentration (IC50) in [11] came to 2180 nM.

B33: Der p 4 peptide 3324.0977 (position 321) (peptide)
peptide: AFMLAWNYGVPRVMS
On to B33, for which the concentration for half-maximal inhibition (IC50) in assay [1] worked out at 339 nM; in assay [2], 8360 nM; in assay [7] it was 992 nM; in [10], 762 nM.

B34: Der f 1 (136-150) peptide 3324.0666 (peptide)
peptide: FSGVAATESAYLAYR
Consider B34, for which, in the assay with HLA-DP DPB1*0401, the 50% inhibitory concentration (IC50) was 1440 nM.

B35: Cla h 8 (101-115) peptide QIDAFIANAGATADS, Peptide ID 3324.0601 (peptide)
peptide: QIDAFIANAGATADS
B35: the values for the IC50 in [5] and in assay [6] were 819 nM and 84 nM, respectively.

B36: Der p 1 peptide 3324.0831 (position 176) (peptide)
peptide: RGIEYIQHNGVVQES
For B36, the IC50 in assay [10] amounted to 859 nM.

B37: Bet v 1 (96-110) peptide 3324.0353 (peptide)
peptide: LEKISNEIKIVATPD
As to B37, the IC50 with HLA-DP DPB1*0401 came out at 6820 nM; with HLA-DP DPB1*0201 it was 7570 nM.

B38: Cup s 1 (91-105) peptide IIFSQNMNIKLKMPL (peptide)
peptide: IIFSQNMNIKLKMPL
Consider B38, for which the half-maximal inhibitory concentration (IC50) turned out to be 36000 nM in assay [8] and 1860 nM in [9].

B39: Cla h 5 (6-20) peptide, Peptide ID 3324.0576 (peptide)
peptide: AFLLLGLAGNSSPSA
As to B39, the IC50 in assay [5] was found to be 718 nM.

B40: Der p 4 peptide 3324.0987 (position 96) (peptide)
peptide: IVLNHMTGAQSGKGT
B40: the IC50 in [10] worked out at 65 nM.

B41: Cla h 8 (236-250) peptide KELKGAYVYFASDAS, Peptide ID 3324.0598 (peptide)
peptide: KELKGAYVYFASDAS
Consider B41, for which the half-inhibitory concentration (IC50) was 4670 nM in assay [5] and 518 nM in [6].

B42: Que a 1 (11-25) peptide ASVIPPARLFKAFVL (peptide)
peptide: ASVIPPARLFKAFVL
On to B42, for which the concentration for half-maximal inhibition (IC50) in [8] turned out to be 1950 nM.

B43: Der p 4 (476-490) peptide 3324.0975 (peptide)
peptide: YVGHDEFDAFVAYHI
On to B43, for which the 50% inhibitory concentration (IC50) came to 273 nM with HLA-DP DPB1*0401 and 177 nM with HLA-DP DPB1*0201.

B44: Pha a 5 peptide, position 121, DAFIAALTEALRVIA (Peptide ID 3324.1432) (peptide)
peptide: DAFIAALTEALRVIA
In the case of B44, the half-inhibitory concentration (IC50) in assay [3] stood at 2040 nM; in [4], 50000 nM.

B45: Der p 4 peptide 3324.0986 (position 381) (peptide)
peptide: EHRWREIYNMVKFRM
For the molecule B45, the half-inhibitory concentration (IC50) was 4240 nM in assay [1] and 8940 nM in assay [7].

B46: Bet v 1 (111-125) peptide 3324.0352 (peptide)
peptide: GGSILKISNKYHTKG
Take B46: the concentration for half-maximal inhibition (IC50) in the assay with HLA-DP DPB1*0401 was 10500 nM.

For orientation: IC50 means the concentration at which inhibition is half-maximal. The low end stands for greater potency, the high end for weaker potency.
